Experimental findings from patent US20160311925A1 (UNIVERSITY OF ROCHESTER, published 2016) are described below.

Test [1] addresses T1, His-AmdR1R2-B (Staphylococcus aureus, UniProt Q5HH31 198-775).
T1 construct: also called rAmd; soluble Amd; not shown: BirA biotinylation site
T1 sequence: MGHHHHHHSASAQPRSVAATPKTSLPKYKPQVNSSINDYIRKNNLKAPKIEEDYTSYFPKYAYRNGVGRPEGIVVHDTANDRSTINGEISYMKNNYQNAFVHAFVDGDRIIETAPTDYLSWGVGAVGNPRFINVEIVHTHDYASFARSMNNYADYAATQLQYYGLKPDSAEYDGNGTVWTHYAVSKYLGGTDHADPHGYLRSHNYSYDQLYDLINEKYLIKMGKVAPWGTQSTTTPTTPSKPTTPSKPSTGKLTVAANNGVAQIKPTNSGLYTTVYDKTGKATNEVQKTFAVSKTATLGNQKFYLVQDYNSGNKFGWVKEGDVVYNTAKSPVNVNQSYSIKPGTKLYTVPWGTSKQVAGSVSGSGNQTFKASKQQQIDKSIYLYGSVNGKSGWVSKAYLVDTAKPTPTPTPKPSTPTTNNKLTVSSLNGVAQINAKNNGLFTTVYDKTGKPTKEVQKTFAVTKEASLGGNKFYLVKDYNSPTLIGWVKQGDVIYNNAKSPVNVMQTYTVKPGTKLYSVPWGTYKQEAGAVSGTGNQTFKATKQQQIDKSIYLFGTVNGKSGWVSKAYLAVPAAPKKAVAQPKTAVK
Nature of the test: SPR, Biacore T-200; immobilized (captured) mAb, soluble His-AmdR1R2-B. Background: Surface plasmon resonance follows binding to a sensor surface in real time, without labels.

Test [2] deals with T1, His-AmdR1R2-B. Kind of test: SPR, Biacore T-200; mAb captured by rabbit anti-mouse Fc IgG on a CM-5 chip, Amd at 1.56 to 25 nM; the single run shown in FIG. 4.
Procedure: (§1) The capture (association, t=0 to 120 sec) and release (dissociation, t=120 to 420 sec) phases are presented. […] Measurements were made according the manufacturer's instructions and kinetic data were analyzed using biomolecular interaction analysis (BIA) evaluation software (version 3.1) from Biacore AB.
(§2) The affinity of immobilized anti-Amd mAbs for soluble His-AmdR1R2-B was measured using surface plasmon resonance technology on a Biacore T-200.
Test [3] addresses T1, His-AmdR1R2-B. Nature of the test: SPR, Biacore T-200; immobilized (captured) mAb, soluble His-AmdR1R2-B; average.
Procedure: as §1, §2
Test [4] addresses T1, His-AmdR1R2-B. Nature of the test: SPR (Biacore T-200): Ab 1.6 (20nM) captured on immobilized rabbit anti-mouse Fc (RamFc), soluble Amd flowed at 1.56 to 25 nM.
Procedure: as §1, §2
The target in test [5] is T1, His-AmdR1R2-B. Kind of test: cell-based or functional assay.

B1: anti-Amd mAb Amd1.9 (antibody, V domains shown)
VH: VESGGGLVKPGGSLKLSCAASGFTFSSYAMSWVRQTPKKSLEWVASITSGGSAYYPDSVKGRFTISRDNARNILNLQMSSLRSEDTAMYYCARDDGYFDYWGQGTTLTVSS
VL: DIQMTQSPASLSVSVGETVTITCRTSENIFSNFAWYQQQPGKSPQLLVYGATNLADGVPSRFSGSGSGTQYSLKITSLQSEDFGSYYCQHFWGSPWTF
notes: Mouse hybridoma mAb (Fusion #1), IgG1; The variable domains are incomplete at the termini
For orientation: Kd means the constant that tells how readily two partners part at equilibrium. A high value points to a looser complex. In the test with His-AmdR1R2-B [1], B1 registered a Kd of 2.6 nM.

B2: anti-Amd mAb Amd1.11 (antibody, V domains shown)
VH: QIQLVQSGPELKKPGETVKISCKASGYTFTNYGMNWVKQAPGKGLEWMGWINTYTGEPTYADDFKGRFAFSLETSASTAYLLINNLKNEDTATYFCARRDGYFDAMDYWGQGTSVTVSS
VL: DILLTQSPAILSVSPGERVSFSCRASQSIGTSIHWYQQRTNGSPRLLIKYASESISGIPSRFSGSGSGTDFTLSINSVESEDIADYYCQQSNSWPALTFG
notes: Mouse hybridoma mAb (Fusion #1), IgG1; The VL is incomplete at the C-terminus
In turn, B2 registered a Kd with His-AmdR1R2-B [1] of 3.4 nM.

B3: anti-Amd mAb Amd1.1 (antibody, IgG1, V domains shown)
VH: QQSGAELVKPGASVKLSCTASGFNIKDTYIHWVKQRPEQGLEWIGRIDPANGITNYDPKFQGRATITADTSSNIAYLQLTSLTSEGTAVYYCARGGYLSPYAMDYWGQGTSVTVSS
VL: ENVLTQSPAIMSASLGEKVTMTCRASSSVNYMFWFQQKSDASPKLWIYYTSNLAPGVPARFSGSGSGNSYSLTISSMEGEDAATYYCQEFTSFPYTFG
In the test with His-AmdR1R2-B [1], B3 had a Kd of 2.5 nM.

B4: anti-Amd mAb Amd1.6 (antibody, IgG1, V domains shown)
VH: QSGTVLARPGTSVKMSCKASGYSFTNYWMHWVRQRPGQGLEWIGSIYPGNSDTTYNQKFKDKAKLTAVTSASTAYMELSSLTNEDSAVYYCTGDDYSRFSYWGQGTLVTVSA
VL: SIVMTQTPKFLLVSAGDRLTITCKASQSVSNDVAWYQQKPGQSPKLLIYYTSNRYTGVPDRFTGSGYGTDFTFTISTVQAEDLAVYFCQQDYNSPWTFGGGTK
notes: Mouse hybridoma mAb (Fusion #1), IgG1; The variable domains are incomplete at the termini; also called mAb1.6
In the case of B4, the Kd with His-AmdR1R2-B [2] was approximately 1 nM; in the test with His-AmdR1R2-B [3], 2.1 nM; in the test with His-AmdR1R2-B [4] it was 1.03 nM. Besides, the “IC50 (read off the curve)” value in the test with His-AmdR1R2-B [5] was approximately 2 mg/L.

B5: anti-Amd mAb Amd2.2 (antibody, V domains shown)
VH: ESGPELVKPGASVKISCKASGYTFTDYNMHWVRQSHGKSLEWIGYIYPYNGGTGYNQKFKSKATLTVDNSSSTAYMELRSLTSEDSAVYYCAREDGYYGYFDYWGQGTTLTGSS
VL: EIVLTQSPAITAASLGQKVTITCSASSSVNYMHWYQQKSGTSPKPWIYEISKLASGVPARFSGSGSGTSYSLTISSMEAEDAAIYYCQQWNYPLITFGAGTKLELK
notes: Mouse hybridoma mAb (Fusion #2), IgG1; The VH is incomplete at the N-terminus
On to B5, for which the Kd with His-AmdR1R2-B [1] was 1.4 nM.
